In US20180193456A1 (HENLIUS BIOTECH, published 2018):
One block for each binder: values may come before it.

Key:
[1] = target: T1, VEGFR2 (UniProt P35968 20-764, limits assumed); experiment: SPR; antigen construct and format not stated
T1 construct: The SPR paragraphs name neither antigen construct nor format

[2] = target: T2, VEGFR2-Fc (UniProt P35968 20-764, limits assumed); experiment: ELISA, VEGFR2-Fc coated, anti-human kappa-HRP, OD450
T2 construct: also called biotinylated VEGFR2-Fc; not shown: Fc

[3] = target: T3, VEGFR2-AP (UniProt P35968 20-764); experiment: ELISA, antibody captured with anti-Fd, VEGFR2-AP added (axis printed OD450)
T3 construct: also called AP-conjugated VEGFR2; AP-conjugated VEGFR; not shown: alkaline phosphatase (AP)

[4] = target: T3, VEGFR2-AP; experiment: ELISA, antibody captured with anti-Fc, VEGFR2-AP added (axis printed OD450)
[5] = target: T4, Mouse VEGFR2-Fc (mouse, UniProt P35918 20-762, limits assumed); experiment: ELISA, mouse VEGFR2-Fc coated, anti-human kappa-HRP, A450
T4 construct: not shown: Fc

[6] = target: T5, VEGFR2-D5-7-AP fusion protein (UniProt P35968 421-764); experiment: ELISA: antibody captured with sheep anti-human Fd, VEGFR2-D5-7-AP added, pNPP, A405
T5 construct: domain: domains 5-7; also called domains 5-7 of VEGFR2; not shown: alkaline phosphatase (AP) fusion partner

[7] = target: T3, VEGFR2-AP; experiment: competition ELISA: antibody pre-incubated with VEGFR2-AP, mixture added to VEGF-coated wells, A405; blocked ligand: VEGF
Experimental: Each antibody:antigen mixture was added to VEGF-coated wells of a microtiter dish. Following an incubation and wash, pNPP was added to the wells and incubated for 30 minutes. AP activity was measured by monitoring the increase in absorbance at 405 nm.

[8] = target: T6, human VEGFR3-Fc (R&D Systems) (human, UniProt P35916 25-776); experiment: ELISA, human VEGFR3-Fc coated, goat anti-human F(ab)'2-HRP, OD450
T6 construct: Bought; not shown: Fc
T6 sequence (looked up): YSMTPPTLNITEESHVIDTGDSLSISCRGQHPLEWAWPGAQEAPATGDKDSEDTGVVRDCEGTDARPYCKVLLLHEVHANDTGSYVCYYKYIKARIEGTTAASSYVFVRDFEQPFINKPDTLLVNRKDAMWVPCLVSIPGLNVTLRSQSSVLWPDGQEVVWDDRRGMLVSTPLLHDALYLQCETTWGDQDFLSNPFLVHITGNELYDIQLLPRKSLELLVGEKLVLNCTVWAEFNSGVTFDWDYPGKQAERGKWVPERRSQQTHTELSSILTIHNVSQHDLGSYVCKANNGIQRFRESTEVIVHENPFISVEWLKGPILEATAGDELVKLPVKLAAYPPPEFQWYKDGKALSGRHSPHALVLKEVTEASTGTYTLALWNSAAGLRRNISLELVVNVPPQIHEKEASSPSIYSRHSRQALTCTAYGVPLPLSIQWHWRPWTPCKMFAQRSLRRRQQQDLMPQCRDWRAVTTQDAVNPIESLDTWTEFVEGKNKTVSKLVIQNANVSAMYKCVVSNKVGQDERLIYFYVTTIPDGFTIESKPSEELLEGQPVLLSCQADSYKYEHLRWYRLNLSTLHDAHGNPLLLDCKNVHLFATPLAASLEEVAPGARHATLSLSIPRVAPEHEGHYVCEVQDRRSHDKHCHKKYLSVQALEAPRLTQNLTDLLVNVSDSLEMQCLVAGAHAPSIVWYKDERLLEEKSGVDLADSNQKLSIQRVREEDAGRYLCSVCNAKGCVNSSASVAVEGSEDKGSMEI

[9] = target: T7, recombinant human VEGFR1-Fc fusion protein (R&D Systems) (human, UniProt P17948-2 27-687, limits assumed); experiment: ELISA, human VEGFR1-Fc coated, goat anti-human F(ab)'2-HRP, OD450
T7 construct: Bought; not shown: Fc
T7 sequence (P17948 other isoform, or with tags, fused parts or gaps limits assumed): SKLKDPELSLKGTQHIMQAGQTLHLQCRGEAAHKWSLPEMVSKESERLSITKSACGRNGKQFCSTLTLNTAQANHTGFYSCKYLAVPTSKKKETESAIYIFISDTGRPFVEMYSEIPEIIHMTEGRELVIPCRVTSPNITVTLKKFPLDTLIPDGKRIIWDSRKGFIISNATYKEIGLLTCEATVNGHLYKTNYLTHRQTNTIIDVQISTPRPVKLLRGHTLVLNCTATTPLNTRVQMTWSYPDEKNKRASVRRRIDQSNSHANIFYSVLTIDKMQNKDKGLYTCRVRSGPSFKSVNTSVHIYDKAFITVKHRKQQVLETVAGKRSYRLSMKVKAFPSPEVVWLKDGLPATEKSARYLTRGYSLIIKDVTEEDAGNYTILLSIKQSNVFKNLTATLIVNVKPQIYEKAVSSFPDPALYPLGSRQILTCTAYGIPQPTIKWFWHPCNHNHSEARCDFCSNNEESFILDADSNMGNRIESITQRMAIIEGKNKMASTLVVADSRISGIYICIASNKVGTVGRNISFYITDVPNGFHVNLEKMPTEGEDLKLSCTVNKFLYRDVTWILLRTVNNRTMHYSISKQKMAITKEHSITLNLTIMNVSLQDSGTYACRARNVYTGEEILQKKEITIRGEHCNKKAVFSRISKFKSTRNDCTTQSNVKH

T1 sequence (P35968 20-764 limits assumed): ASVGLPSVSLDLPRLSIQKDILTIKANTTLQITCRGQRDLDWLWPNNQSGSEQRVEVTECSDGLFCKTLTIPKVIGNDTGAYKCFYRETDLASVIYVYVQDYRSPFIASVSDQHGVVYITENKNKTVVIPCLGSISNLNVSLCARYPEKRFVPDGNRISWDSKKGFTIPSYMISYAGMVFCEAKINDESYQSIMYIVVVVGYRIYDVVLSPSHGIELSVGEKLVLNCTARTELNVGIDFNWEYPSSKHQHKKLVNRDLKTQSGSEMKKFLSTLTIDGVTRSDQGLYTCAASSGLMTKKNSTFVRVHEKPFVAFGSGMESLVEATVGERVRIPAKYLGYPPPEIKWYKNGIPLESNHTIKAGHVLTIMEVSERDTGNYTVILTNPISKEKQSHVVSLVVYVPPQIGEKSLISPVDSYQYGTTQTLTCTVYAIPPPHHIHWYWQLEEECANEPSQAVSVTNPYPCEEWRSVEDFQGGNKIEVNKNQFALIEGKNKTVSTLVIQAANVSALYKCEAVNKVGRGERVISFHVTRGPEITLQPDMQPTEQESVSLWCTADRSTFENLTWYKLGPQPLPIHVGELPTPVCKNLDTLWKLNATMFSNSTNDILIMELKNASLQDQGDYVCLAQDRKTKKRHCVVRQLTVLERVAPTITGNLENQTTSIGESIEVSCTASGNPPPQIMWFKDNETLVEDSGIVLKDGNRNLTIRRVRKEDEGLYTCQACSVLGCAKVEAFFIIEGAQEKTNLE
T3 sequence (P35968 20-764): as the sequence (P35968 20-764 limits assumed) above
T4 sequence (P35918 20-762 limits assumed): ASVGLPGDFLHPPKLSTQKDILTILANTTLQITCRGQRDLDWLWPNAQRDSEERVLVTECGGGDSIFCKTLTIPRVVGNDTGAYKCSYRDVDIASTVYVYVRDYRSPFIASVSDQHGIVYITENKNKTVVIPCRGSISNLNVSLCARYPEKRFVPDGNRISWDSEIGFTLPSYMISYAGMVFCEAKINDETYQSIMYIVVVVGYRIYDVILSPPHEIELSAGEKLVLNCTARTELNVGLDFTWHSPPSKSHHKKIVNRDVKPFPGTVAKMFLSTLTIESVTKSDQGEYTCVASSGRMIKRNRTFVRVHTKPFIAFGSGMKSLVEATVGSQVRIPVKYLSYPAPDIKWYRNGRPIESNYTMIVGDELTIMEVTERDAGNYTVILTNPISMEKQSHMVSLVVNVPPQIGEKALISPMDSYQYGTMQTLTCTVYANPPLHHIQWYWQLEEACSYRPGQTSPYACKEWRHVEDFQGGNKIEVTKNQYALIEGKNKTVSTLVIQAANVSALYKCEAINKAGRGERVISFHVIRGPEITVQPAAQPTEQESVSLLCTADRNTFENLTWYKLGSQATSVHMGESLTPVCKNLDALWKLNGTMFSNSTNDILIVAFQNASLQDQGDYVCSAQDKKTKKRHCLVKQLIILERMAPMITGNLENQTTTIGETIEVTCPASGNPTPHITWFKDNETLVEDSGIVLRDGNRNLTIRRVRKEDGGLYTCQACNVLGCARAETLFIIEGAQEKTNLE
T2 sequence (P35968 20-764 limits assumed): as the sequence (P35968 20-764 limits assumed) above
T5 sequence (P35968 421-764): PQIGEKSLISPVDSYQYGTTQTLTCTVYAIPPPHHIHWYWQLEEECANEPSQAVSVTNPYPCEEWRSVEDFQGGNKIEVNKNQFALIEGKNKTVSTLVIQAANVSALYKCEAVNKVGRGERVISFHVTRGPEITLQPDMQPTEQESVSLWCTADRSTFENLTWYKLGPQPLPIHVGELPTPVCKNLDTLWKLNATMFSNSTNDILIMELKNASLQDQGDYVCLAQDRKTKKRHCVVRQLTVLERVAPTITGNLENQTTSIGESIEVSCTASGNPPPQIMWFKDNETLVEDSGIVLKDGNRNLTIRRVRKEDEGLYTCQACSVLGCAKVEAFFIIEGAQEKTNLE

- Kd [1]: 1.28 nM
- koff [1]: 0.000962 s⁻¹
- kon [1]: 752000 M⁻¹ s⁻¹
- EC50 (read off the curve) [2]: ~500 ng/mL
- EC50 (read off the curve) [3]: ~600 ng/mL
- EC50 (read off the curve) [4]: ~300 ng/mL
- binding result [5]: no binding (tested: 500 µg/mL)
- binding result [6]: no binding (tested: 3 µg/mL)
- IC50 (read off the curve) [7]: ~0.05 µg/mL
B1: 1121B (antibody, V domains shown)
VH: EVQLVQSGGGLVKPGGSLRLSCAASGFTFSSYSMNWVRQAPGKGLEWVSSISSSSSYIYYADSVKGRFTISRDNAKNSLYLQMNSLRAEDTAVYYCARVTDAFDIWGQGTMVTVSS
VL: EIVMTQSPATLSLSPGERATLSCRASQSVSSYLAWYQQKPGQAPRLLIYDSSNRATGIPARFSGSGSGTDFTLTISSLEPEDFATYYCLQHNTFPPTFGQGTKVEIKR
notes: Anti-VEGFR2 antibody of US 2009/0306348, positive control; The entries are called variable domains but run into the start of the constant domains

- binding result [5]: no binding (tested: 500 µg/mL)
- EC50 (read off the curve) [8]: ~1 µg/mL
- binding result [9]: no binding (tested: 20 µg/mL)
B2: 1121N (antibody, V domains shown)
VH: B1 VH
VL: DIQMTQSPSSVSASIGDRVTITCRASQGIDNWLGWYQQKPGKAPKLLIYDASNLDTGVPSRFSGSGSGTYFTLTISSLQAEDFAVYFCQQAKAFPPTFGGGTKVDIKG
notes: Anti-VEGFR2 antibody of U.S. Pat. No. 7,498,414, positive control; Entries run into the start of the constant domains
